Assay results from US9598677B2, “Use of human biliverdin reductase and fragments thereof for the treatment of protein kinase C-delta and ERK related conditions” (University of Rochester, priority 2009, dated 2017).
“Also recorded” adds a separate entry of the source. Ends that are not written are not given here.

Columns and labels:
recombinant human PKC-δ [1] = conditions: Nishikawa et al. 1997; read-out: reported Km for the commercial substrate; cited from earlier work
Elk1 = assay: Elk1-luciferase reporter assay; format: cell-based, human; conditions: myristoylated peptide 2 h prior to PMA, control PMA-treated cells, FIG. 10C
Experimental: Elk1-luciferase reporter assay: Cells were co-transfected with the reporters pFA2-Elk1, pFR-Luc (Stratagene, La Jolla, Calif.) and pCMV-β-galactosidase, and other plasmids, as necessary. Cells were lysed; promoter activity was determined by luciferase assay and normalized on β-galactosidase.

recombinant human PKC-δ [2] = assay: PKC-δ kinase assay in vitro (p81 filter / autoradiography); format: biochemical
Experimental: Measurement of PKC-δ activity: In vitro kinase activity assays were performed with active recombinant human PKC-δ kinase (as a GST fusion protein). PKC-δ assay in vitro was performed using 5 ng purified enzyme in a 50 μl assay containing 50 mM HEPES pH 7.4, 10 mM MgCl2, 0.2 mM DTT, sonicated lipid activators (0.5 μg phosphatidylserine and 0.05 μg diacylglycerol) or lipid activators plus PMA (as indicated in appropriate experiments) and PKC-δ substrates. The reaction was started by the addition of 50 μM ATP labeled with 5 μCi [γ-^32P]-ATP. Incubation was performed for 15 min at 30° C., unless otherwise stated. The reaction was terminated on ice, either by the addition of Laemmli buffer followed by SDS-PAGE, transferred to PVDF membrane, and autoradiography, or by the addition of 1 volume 10% phosphoric acid for p81 transfer as described below. For autophosphorylation of PKC-δ 20 μM ATP was used to start the 40-min reaction.
When hBVR or its mutants were tested for their effect on PKC-δ activity, they were pre-incubated for 5 min at room temperature with the PKC prior to substrate addition. The hBVR-derived peptides were used at concentrations indicated in appropriate figures.
When hBVR or its mutants were assayed as the sole substrates for PKC, the incubation conditions were as described above and the incubation was for 40 min at 30° C. unless specified otherwise. The reaction was terminated by the addition of Laemmli buffer, and the reaction products were detected by SDS-PAGE, transfer to PVDF membrane, and autoradiography.
Measurement of PKC-δ activity: PKC-δ assay in vitro was performed using 0.1 ng/μl purified recombinant human PKC-δ kinase with reaction conditions specified by the manufacturer. Effector molecules such as hBVR or peptides were added 5 min prior to substrate. The reaction was started by the addition of [γ-^32P]-ATP (Lerner-Marmarosh et al., “Human Biliverdin Reductase: A Member of the Insulin Receptor Substrate Family with Serine/Threonine/Tyrosine Kinase Activity,” Proc. Natl. Acad. Sci. U.S.A. 102(20):7109-7114 (2005), which is hereby incorporated by reference in its entirety). Reaction products were detected either by gel electrophoresis and autoradiography or by the p81 filter assay. PKC-δ activity on agarose beads was also measured. Cell lysates were immunoprecipitated with anti-PKC-δ antibody followed by protein A/G agarose. The immunoprecipitates were used in kinase reactions containing 50 μM PKC-δ specific peptide substrate as above; incorporation of ^32P was measured by p81 method.

PKC-δ = PKC-δ (Homo sapiens, UniProt Q05655); assay: GST-hBVR pull-down of PKC-δ from cell lysate; format: binding; design: The human PKC-δ open reading frame was also cloned in the same vectors; expressed in transfected cells; host or cells: HEK 293A (PKC-δ); E. coli, pGEX-4T2 (GST-hBVR); conditions: 30 min and 120 min incubation, FIG. 2A
Experimental: Cell Culture, infection, transfection, GST pull-down and co-immunoprecipitation: HEK 293A cells were grown in Dulbecco's Modified Eagle Medium (Invitrogen) containing 10% fetal bovine serum and 1% penicillin-G/streptomycin for 24 h or until the cells reached 70% confluency. Depending on the experiment, cells were subsequently transfected with up to 5 μg of pcDNA3-hBVR or pcDNA3-PKC-δ plasmid using Transfectin Lipid Reagent (Bio-Rad, Hercules, Calif.) in 10 cm plates. Western blotting determined overexpression of hBVR or PKC-δ. To prepare si-hBVR or sc-hBVR (containing a randomized variant of the sihBVR sequence), pSuper-Retro-si-hBVR (Miralem et al., “Small Interference RNA-Mediated Gene Silencing of Human Biliverdin Reductase, But Not That of Heme Oxygenase-1, Attenuates Arsenite-Mediated Induction of the Oxygenase and Increases Apoptosis in 293A Kidney Cells,” J. Biol. Chem. 280:17084-17092 (2005), which is hereby incorporated by reference in its entirety) or sc-hBVR, respectively, were introduced into 293A cells for packaging, and the si-hBVR or sc-hBVR retrovirus were titrated using NIH3T3 cells. […] Proteins were separated by SDS-page and detected by immunoblotting using anti-PKC-δ antibodies.

Chain of PKC-δ (Q05655 whole entry): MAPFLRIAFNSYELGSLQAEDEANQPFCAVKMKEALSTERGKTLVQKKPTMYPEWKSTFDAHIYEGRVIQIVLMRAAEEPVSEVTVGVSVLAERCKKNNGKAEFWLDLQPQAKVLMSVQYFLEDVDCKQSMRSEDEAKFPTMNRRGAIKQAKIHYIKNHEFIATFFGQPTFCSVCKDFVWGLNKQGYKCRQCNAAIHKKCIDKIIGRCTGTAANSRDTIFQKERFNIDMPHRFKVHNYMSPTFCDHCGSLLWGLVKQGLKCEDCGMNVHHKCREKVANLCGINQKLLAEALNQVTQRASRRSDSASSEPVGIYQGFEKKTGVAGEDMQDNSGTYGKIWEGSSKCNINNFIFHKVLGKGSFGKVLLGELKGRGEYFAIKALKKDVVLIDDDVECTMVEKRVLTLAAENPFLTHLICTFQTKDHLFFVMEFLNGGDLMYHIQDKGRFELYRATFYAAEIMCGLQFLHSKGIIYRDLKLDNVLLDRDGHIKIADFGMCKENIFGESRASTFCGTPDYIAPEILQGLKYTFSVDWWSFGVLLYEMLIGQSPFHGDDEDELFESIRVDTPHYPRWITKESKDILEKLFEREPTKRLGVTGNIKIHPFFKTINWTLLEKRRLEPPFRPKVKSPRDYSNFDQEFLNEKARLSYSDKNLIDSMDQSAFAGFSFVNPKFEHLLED

Question: Which Km (recombinant human PKC-δ [1]) does the source give for “ARRKRKGSFFGG (PKC-delta substrate) [commercial peptide identified by Nishikawa as the optimal substrate for PKC-δ]” here?
Answer: Its Km is 0.98 µM.

Question: Which “inhibition of Elk1 dependent luciferase expression” value (Elk1) does the source give for “SAFAGFSFVNPKFEHLLED (also: myristoylation, place not given here) [myristoylated PKC-δ bulky Ring motif C-terminal peptide]” here?
Answer: Its value is 90%.

B1: hBVR: purified E. coli expressed human biliverdin reductase (protein)
chain: MNAEPERKFGVVVVGVGRAGSVRMRDLRNPHPSSAFLNLIGFVSRRELGSIDGVQQISLEDALSSQEVEVAYICSESSSHEDYIRQFLNAGKHVLVEYPMTLSLAAAQELWELAEQKGKVLHEEHVELLMEEFAFLKKEVVGKDLLKGSLLFTSDPLEEDRFGFPAFSGISRLTWLVSLFGELSLVSATLEERKEDQYMKMTVCLETEKKSPLSWIEEKGPGLKRNRYLSFHFKSGSLENVPNVGVNKNIFLKDQNIFVQKLLGQFSEKELAAEKKRILHCLGLAEEIQKYCCSRK
modifications: GST tag; Homo sapien
notes: purified E. coli expressed human biliverdin reductase
Question: Which results are given for B1?
Answer: PKC-δ kinase activity toward MBP in presence of hBVR (recombinant human PKC-δ [2]; 2 μg GST-hBVR, 12.5 μM MBP, FIG. 1B): increased kinase activity; PKC-δ autophosphorylation in presence of hBVR (recombinant human PKC-δ [2]; FIGS. 1A, 1C, 7C): enhanced; also recorded: increased; binding of PKC-δ from cell lysates (PKC-δ): selectively bound PKC-δ
